Reference: US20210147877A1

What was measured:
Experiment in all cases: cell-based or functional assay
[1] = target: AAV2 vector (parental AAV2 capsid) (AAV serotype 2) (UniProt P03135)
[2] = target: AAV8 vector (parental AAV8 capsid) (AAV serotype 8)
[3] = target: haploid virus AAV2/8 1:1 (AAV serotype 2; AAV serotype 8) (UniProt P03135)
[4] = target: haploid virus AAV2/8 1:3 (AAV serotype 2; AAV serotype 8) (UniProt P03135)
[5] = target: haploid virus AAV2/8 3:1 (AAV serotype 2; AAV serotype 8) (UniProt P03135)

| Substance | Neutralization antibody titer [1] [titer] | Neutralization antibody titer [2] [titer] | Neutralization antibody titer [3] [titer] | Neutralization antibody titer [4] [titer] | Neutralization antibody titer [5] [titer] |
| --- | --- | --- | --- | --- | --- |
| monoclonal antibody A20 | 512 | < 2 | 32 | < 2 | 2048 |
| monoclonal antibody ADK8 | < 2 | 1024 | 512 | 1024 | 512 |
